According to PMC8298264, “Function of cofactor Akirin2 in the regulation of gene expression in model human neutrophil-like HL60 cells” (Bioscience Reports, 2021):

B1: sp¦P48449¦LSS_HUMAN (protein, UniProt P48449 2-732, looked up)
Lanosterol synthase: TEGTCLRRRGGPYKTEPATDLGRWRLNCERGRQTWTYLQDERAGREQTGLEAYALGLDTKNYFKDLPKAHTAFEGALNGMTFYVGLQAEDGHWTGDYGGPLFLLPGLLITCHVARIPLPAGYREEIVRYLRSVQLPDGGWGLHIEDKSTVFGTALNYVSLRILGVGPDDPDLVRARNILHKKGGAVAIPSWGKFWLAVLNVYSWEGLNTLFPEMWLFPDWAPAHPSTLWCHCRQVYLPMSYCYAVRLSAAEDPLVQSLRQELYVEDFASIDWLAQRNNVAPDELYTPHSWLLRVVYALLNLYEHHHSAHLRQRAVQKLYEHIVADDRFTKSISIGPISKTINMLVRWYVDGPASTAFQEHVSRIPDYLWMGLDGMKMQGTNGSQIWDTAFAIQALLEAGGHHRPEFSSCLQKAHEFLRLSQVPDNPPDYQKYYRQMRKGGFSFSTLDCGWIVSDCTAEALKAVLLLQEKCPHVTEHIPRERLCDAVAVLLNMRNPDGGFATYETKRGGHLLELLNPSEVFGDIMIDYTYVECTSAVMQALKYFHKRFPEHRAAEIRETLTQGLEFCRRQQRADGSWEGSWGVCFTYGTWFGLEAFACMGQTYRDGTACAEVSRACDFLLSRQMADGGWGEDFESCEERRYLQSAQSQIHNTCWAMMGLMAVRHPDIEAQERGVRCLLEKQLPNGDWPQENIAGVFNKSCAISYTSYRNIFPIWALGRFSQLYPERALAGHP
B2: sp¦P49916¦DNLI3_HUMAN (protein, UniProt P49916 43-1009, looked up)
DNA ligase 3: LLHGHPLFLRRKPVLSFQGSHLRSRATYLVFLPGLHVGLCSGPCEMAEQRFCVDYAKRGTAGCKKCKEKIVKGVCRIGKVVPNPFSESGGDMKEWYHIKCMFEKLERARATTKKIEDLTELEGWEELEDNEKEQITQHIADLSSKAAGTPKKKAVVQAKLTTTGQVTSPVKGASFVTSTNPRKFSGFSAKPNNSGEAPSSPTPKRSLSSSKCDPRHKDCLLREFRKLCAMVADNPSYNTKTQIIQDFLRKGSAGDGFHGDVYLTVKLLLPGVIKTVYNLNDKQIVKLFSRIFNCNPDDMARDLEQGDVSETIRVFFEQSKSFPPAAKSLLTIQEVDEFLLRLSKLTKEDEQQQALQDIASRCTANDLKCIIRLIKHDLKMNSGAKHVLDALDPNAYEAFKASRNLQDVVERVLHNAQEVEKEPGQRRALSVQASLMTPVQPMLAEACKSVEYAMKKCPNGMFSEIKYDGERVQVHKNGDHFSYFSRSLKPVLPHKVAHFKDYIPQAFPGGHSMILDSEVLLIDNKTGKPLPFGTLGVHKKAAFQDANVCLFVFDCIYFNDVSLMDRPLCERRKFLHDNMVEIPNRIMFSEMKRVTKALDLADMITRVIQEGLEGLVLKDVKGTYEPGKRHWLKVKKDYLNEGAMADTADLVVLGAFYGQGSKGGMMSIFLMGCYDPGSQKWCTVTKCAGGHDDATLARLQNELDMVKISKDPSKIPSWLKVNKIYYPDFIVPDPKKAAVWEITGAEFSKSEAHTADGISIRFPRCTRIRDDKDWKSATNLPQLKELYQLSKEKADFTVVAGDEGSSTTGGSSEENKGPSGSAVSRKAPSKPSASTKKAEGKLSNSNSKDGNMQTAKPSAMKVGEKLATKSSPVKVGEKRKAADETLCQTKVLLDIFTGVRLYLPPSTPDFSRLRRYFVAFDGDLVQEFDMTSATHVLGSRDKNPAAQQVSPEWIWACIRKRRLVAPC
B3: sp¦Q1KMD3¦HNRL2_HUMAN (protein, UniProt Q1KMD3 1-747, looked up)
Heterogeneous nuclear …: MEVKRLKVTELRSELQRRGLDSRGLKVDLAQRLQEALDAEMLEDEAGGGGAGPGGACKAEPRPVAASGGGPGGDEEEDEEEEEEDEEALLEDEDEEPPPAQALGQAAQPPPEPPEAAAMEAAAEPDASEKPAEATAGSGGVNGGEEQGLGKREEDEPEERSGDETPGSEVPGDKAAEEQGDDQDSEKSKPAGSDGERRGVKRQRDEKDEHGRAYYEFREEAYHSRSKSPLPPEEEAKDEEEDQTLVNLDTYTSDLHFQVSKDRYGGQPLFSEKFPTLWSGARSTYGVTKGKVCFEAKVTQNLPMKEGCTEVSLLRVGWSVDFSRPQLGEDEFSYGFDGRGLKAENGQFEEFGQTFGENDVIGCFANFETEEVELSFSKNGEDLGVAFWISKDSLADRALLPHVLCKNCVVELNFGQKEEPFFPPPEEFVFIHAVPVEERVRTAVPPKTIEECEVILMVGLPGSGKTQWALKYAKENPEKRYNVLGAETVLNQMRMKGLEEPEMDPKSRDLLVQQASQCLSKLVQIASRTKRNFILDQCNVYNSGQRRKLLLFKTFSRKVVVVVPNEEDWKKRLELRKEVEGDDVPESIMLEMKANFSLPEKCDYMDEVTYGELEKEEAQPIVTKYKEEARKLLPPSEKRTNRRNNRNKRNRQNRSRGQGYVGGQRRGYDNRAYGQQYWGQPGNRGGYRNFYDRYRGDYDRFYGRDYEYNRYRDYYRQYNRDWQSYYYHHPQDRDRYYRNYYGYQGYR
B4: sp¦Q99986¦VRK1_HUMAN (protein, UniProt Q99986 1-396, looked up)
Serine/threonine-protein …: MPRVKAAQAGRQSSAKRHLAEQFAVGEIITDMAKKEWKVGLPIGQGGFGCIYLADMNSSESVGSDAPCVVKVEPSDNGPLFTELKFYQRAAKPEQIQKWIRTRKLKYLGVPKYWGSGLHDKNGKSYRFMIMDRFGSDLQKIYEANAKRFSRKTVLQLSLRILDILEYIHEHEYVHGDIKASNLLLNYKNPDQVYLVDYGLAYRYCPEGVHKEYKEDPKRCHDGTIEFTSIDAHNGVAPSRRGDLEILGYCMIQWLTGHLPWEDNLKDPKYVRDSKIRYRENIASLMDKCFPEKNKPGEIAKYMETVKLLDYTEKPLYENLRDILLQGLKAIGSKDDGKLDLSVVENGGLKAKTITKKRKKEIEESKEPGVEDTEWSNTQTEEAIQTRSRTRKRVQK
B5: sp¦Q6RFH5¦WDR74_HUMAN (protein, UniProt Q6RFH5 1-385, looked up)
WD repeat-containing protein …: MAAAAARWNHVWVGTETGILKGVNLQRKQAANFTAGGQPRREEAVSALCWGTGGETQMLVGCADRTVKHFSTEDGIFQGQRHCPGGEGMFRGLAQADGTLITCVDSGILRVWHDKDKDTSSDPLLELRVGPGVCRMRQDPAHPHVVATGGKENALKIWDLQGSEEPVFRAKNVRNDWLDLRVPIWDQDIQFLPGSQKLVTCTGYHQVRVYDPASPQRRPVLETTYGEYPLTAMTLTPGGNSVIVGNTHGQLAEIDLRQGRLLGCLKGLAGSVRGLQCHPSKPLLASCGLDRVLRIHRIQNPRGLEHKVYLKSQLNCLLLSGRDNWEDEPQEPQEPNKVPLEDTETDELWASLEAAAKRKLSGLEQPQGALQTRRRKKKRPGSTSP
B6: sp¦P36957¦ODO2_HUMAN (protein, UniProt P36957 68-453, looked up)
Dihydrolipoyllysine-residue …: DDLVTVKTPAFAESVTEGDVRWEKAVGDTVAEDEVVCEIETDKTSVQVPSPANGVIEALLVPDGGKVEGGTPLFTLRKTGAAPAKAKPAEAPAAAAPKAEPTAAAVPPPAAPIPTQMPPVPSPSQPPSGKPVSAVKPTVAPPLAEPGAGKGLRSEHREKMNRMRQRIAQRLKEAQNTCAMLTTFNEIDMSNIQEMRARHKEAFLKKHNLKLGFMSAFVKASAFALQEQPVVNAVIDDTTKEVVYRDYIDISVAVATPRGLVVPVIRNVEAMNFADIERTITELGEKARKNELAIEDMDGGTFTISNGGVFGSLFGTPIINPPQSAILGMHGIFDRPVAIGGKVEVRPMMYVALTYDHRLIDGREAVTFLRKIKAAVEDPRVLLLDL
B7: sp¦P24752¦THIL_HUMAN (protein, UniProt P24752 34-427, looked up)
Acetyl-CoA acetyltransferase, …: VSKPTLKEVVIVSATRTPIGSFLGSLSLLPATKLGSIAIQGAIEKAGIPKEEVKEAYMGNVLQGGEGQAPTRQAVLGAGLPISTPCTTINKVCASGMKAIMMASQSLMCGHQDVMVAGGMESMSNVPYVMNRGSTPYGGVKLEDLIVKDGLTDVYNKIHMGSCAENTAKKLNIARNEQDAYAINSYTRSKAAWEAGKFGNEVIPVTVTVKGQPDVVVKEDEEYKRVDFSKVPKLKTVFQKENGTVTAANASTLNDGAAALVLMTADAAKRLNVTPLARIVAFADAAVEPIDFPIAPVYAASMVLKDVGLKKEDIAMWEVNEAFSLVVLANIKMLEIDPQKVNINGGAVSLGHPIGMSGARIVGHLTHALKQGEYGLASICNGGGGASAMLIQKL
B8: sp¦Q9NVI7¦ATD3A_HUMAN (protein, UniProt Q9NVI7 2-586, looked up)
ATPase family AAA …: SWLFGINKGPKGEGAGPPPPLPPAQPGAEGGGDRGLGDRPAPKDKWSNFDPTGLERAAKAARELEHSRYAKDALNLAQMQEQTLQLEQQSKLKEYEAAVEQLKSEQIRAQAEERRKTLSEETRQHQARAQYQDKLARQRYEDQLKQQQLLNEENLRKQEESVQKQEAMRRATVEREMELRHKNEMLRVEAEARARAKAERENADIIREQIRLKAAEHRQTVLESIRTAGTLFGEGFRAFVTDWDKVTATVAGLTLLAVGVYSAKNATLVAGRFIEARLGKPSLVRETSRITVLEALRHPIQVSRRLLSRPQDALEGVVLSPSLEARVRDIAIATRNTKKNRSLYRNILMYGPPGTGKTLFAKKLALHSGMDYAIMTGGDVAPMGREGVTAMHKLFDWANTSRRGLLLFVDEADAFLRKRATEKISEDLRATLNAFLYRTGQHSNKFMLVLASNQPEQFDWAINDRINEMVHFDLPGQEERERLVRMYFDKYVLKPATEGKQRLKLAQFDYGRKCSEVARLTEGMSGREIAQLAVSWQATAYASEDGVLTEAMMDTRVQDAVQQHQQKMCWLKAEGPGRGDEPSPS
B9: sp¦P18859¦ATP5J_HUMAN (protein, UniProt P18859 33-108, looked up)
ATP synthase peripheral stalk …: NKELDPIQKLFVDKIREYKSKRQTSGGPVDASSEYQQELERELFKLKQMFGNADMNTFPTFKFEDPKFEVIEKPQA
B10: sp¦P00966¦ASSY_HUMAN (protein, UniProt P00966 1-412, looked up)
Argininosuccinate synthase: MSSKGSVVLAYSGGLDTSCILVWLKEQGYDVIAYLANIGQKEDFEEARKKALKLGAKKVFIEDVSREFVEEFIWPAIQSSALYEDRYLLGTSLARPCIARKQVEIAQREGAKYVSHGATGKGNDQVRFELSCYSLAPQIKVIAPWRMPEFYNRFKGRNDLMEYAKQHGIPIPVTPKNPWSMDENLMHISYEAGILENPKNQAPPGLYTKTQDPAKAPNTPDILEIEFKKGVPVKVTNVKDGTTHQTSLELFMYLNEVAGKHGVGRIDIVENRFIGMKSRGIYETPAGTILYHAHLDIEAFTMDREVRKIKQGLGLKFAELVYTGFWHSPECEFVRHCIAKSQERVEGKVQVSVLKGQVYILGRESPLSLYNEELVSMNVQGDYEPTDATGFININSLRLKEYHRLQSKVTAK

Tested on: human HL60 cells
Assay: SWATH-MS proteomics, differential protein representation, akirin2 KO vs WT HL60 cells
Assay type: cell-based
Details: SWATH-MS, akirin2 KO vs WT HL60 cells, under-represented in KO
Method in brief: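 Proteins from WT and akirin2 KO HL60 cells (n=3 biological replicates) were FASP trypsin-digested and analyzed by SWATH-MS DIA with variable windows against an IDA-derived spectral library. Identifications at 1% global FDR; quantities normalized to total area sums of all detected proteins.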

Molecule | Fold Change | Log (Fold Change)
B1 | 0.7416 | -0.1298
B2 | 0.7417 | -0.1297
B3 | 0.7447 | -0.128
B4 | 0.7448 | -0.128

Same assay, conditions: SWATH-MS, akirin2 KO vs WT HL60 cells; sheet "Under-represented in KO"

Molecule | Fold Change | Log (Fold Change)
B5 | 0.7453 | -0.1277
B6 | 0.7478 | -0.1262
B7 | 0.7481 | -0.126
B8 | 0.7506 | -0.1246
B9 | 0.7532 | -0.1231

Same assay, conditions: akirin2 KO vs WT HL60 cells; sheet "Under-represented in KO"

Molecule | Fold Change | Log (Fold Change)
B10 | 0.3334 | -0.477
